Data from PMC7430568.

Assays:
[1] = molecular target: SARS-CoV-2 Spike* (mutant, pre-fusion stabilised Spike protein ectodomain) (SARS-CoV-2, Wuhan-Hu-1); assay: SPR
[2] = molecular target: SARS-CoV-2 Spike* (mutant, pre-fusion stabilised Spike protein ectodomain) (SARS-CoV-2, Wuhan-Hu-1)

Row | Substance | kd2 (slow phase of dissociation) [1] | IC50 [2] | Kd [1]
1 | Nb6-tri (trivalent Nb6 with two 20 amino acid linkers) (VHH) | < 1e-06 s⁻¹ | 1.5 nM | –
2 | mNb6-tri (trivalent mNb6) (VHH) | – | 0.4 nM | < 0.001 nM
